± gives the standard deviation of the averaged measurements.
Assay: total protein half-life in vivo (active degradation + dilution); higher = more stable protein
[1] = E. coli NCM3722 delta-clpP delta-lon delta-hslV, growth: N-lim chemostat, doubling time 6 h
[2] = E. coli NCM3722 delta-clpP, growth: N-lim chemostat, doubling time 6 h
[3] = E. coli NCM3722 delta-hslV, growth: N-lim chemostat, doubling time 6 h
[4] = E. coli NCM3722 delta-lon, growth: N-lim chemostat, doubling time 6 h
[5] = E. coli NCM3722 delta-smpB, growth: N-lim chemostat, doubling time 6 h
[6] = wild type E. coli NCM3722, growth: C-lim chemostat, doubling time 3 h
[7] = wild type E. coli NCM3722, growth: C-lim chemostat, doubling time 6 h
[8] = wild type E. coli NCM3722, growth: C-lim chemostat, doubling time 12 h
[9] = wild type E. coli NCM3722, growth: N-lim chemostat, doubling time 6 h
[10] = wild type E. coli NCM3722, growth: N-lim chemostat, doubling time 12 h
[11] = wild type E. coli NCM3722, growth: P-lim chemostat, doubling time 6 h
[12] = wild type E. coli NCM3722, growth: P-lim chemostat, doubling time 12 h

Sequence	total protein half-life in vivo [1] [h]	total protein half-life in vivo [2] [h]	total protein half-life in vivo [3] [h]	total protein half-life in vivo [4] [h]	total protein half-life in vivo [5] [h]	total protein half-life in vivo [6] [h]	total protein half-life in vivo [7] [h]	total protein half-life in vivo [8] [h]	total protein half-life in vivo [9] [h]	total protein half-life in vivo [10] [h]	total protein half-life in vivo [11] [h]	total protein half-life in vivo [12] [h]
MKTLILFSTRDGQTREIASYLASELKELGIQADVANVHRIEEPQWENYDRVVIGASIRYGHYHSAFQEFVKKHATRLNSMPSAFYSVNLVARKPEKRTPQTNSYARKFLMNSQWRPDRCAVIAGALRYPRYRWYDRFMIKLIMKMSGGETDTRKEVVYTDWEQVANFAREIAHLTDKPTLK [P0ACB4]	6.5 ± 0.98	6.1 ± 0.4	6.54 ± 0.68	6.2 ± 0.14	5.74 ± 0.11	3.05 ± 0.23	5.733 ± 0.054	9.62 ± 0.39	5.4517 ± 0.0046	11.18 ± 0.03	5.69 ± 0.12	11.9 ± 0.72
MSEKPLTKTDYLMRLRRCQTIDTLERVIEKNKYELSDNELAVFYSAADHRLAELTMNKLYDKIPSSVWKFIR [P0ACE3]	2.93						1.69 ± 0.43	0.865				
MKAILIPFLSLLIPLTPQSAFAQSEPELKLESVVIVSRHGVRAPTKATQLMQDVTPDAWPTWPVKLGWLTPRGGELIAYLGHYQRQRLVADGLLAKKGCPQSGQVAIIADVDERTRKTGEAFAAGLAPDCAITVHTQADTSSPDPLFNPLKTGVCQLDNANVTDAILSRAGGSIADFTGHRQTAFRELERVLNFPQSNLCLKREKQDESCSLTQALPSELKVSADNVSLTGAVSLASMLTEIFLLQQAQGMPEPGWGRITDSHQWNTLLSLHNAQFYLLQRTPEVARSRATPLLDLIKTALTPHPPQKQAYGVTLPTSVLFIAGHDTNLANLGGALELNWTLPGQPDNTPPGGELVFERWRRLSDNSQWIQVSLVFQTLQQMRDKTPLSLNTPPGEVKLTLAGCEERNAQGMCSLAGFTQIVNEARIPACSL	5.24 ± 0.47	5.26 ± 0.056	6.56 ± 0.62	6.26 ± 0.8	5.84 ± 0.11	3.02 ± 0.21		11.6 ± 0.68	5.94 ± 0.28	12.6 ± 0.49	5.7 ± 0.15	11.9 ± 0.49
MEITEPRRLYQQLAADLKERIEQGVYLVGDKLPAERFIADEKNVSRTVVREAIIMLEVEGYVEVRKGSGIHVVSNQPRHQQAADNNMEFANYGPFELLQARQLIESNIAEFAATQVTKQDIMKLMAIQEQARGEQCFRDSEWDLQFHIQVALATQNSALAAIVEKMWTQRSHNPYWKKLHEHIDSRTVDNWCDDHDQILKALIRKDPHAAKLAMWQHLENTKIMLFNETSDDFEFNADRYLFAENPVVHLDTATSGSK [P0ACL2]	5.59 ± 0.086	4.22 ± 0.52	1.94 ± 0.086	2.4 ± 0.26	2.12 ± 0.16	1.97 ± 0.099	3.7 ± 0.26	5.16 ± 0.083	1.97 ± 0.043	2.59 ± 0.37	2.99 ± 0.29	4.91 ± 0.27
MNTISSLETTDLPAAYHIEQRAHAFPWSEKTFASNQGERYLNFQLTQNGKMAAFAITQVVLDEATLFNIAVDPDYQRQGLGRALLEHLIDELEKRGVATLWLEVRASNAAAIALYESLGFNEATIRRNYYPTTDGREDAIIMALPISM [P0A944]	5.64	4.51		4.5 ± 0.79	3.85	> 4		15.9	3.845 ± 0.034	6.18	4.53	8.18
MRLLNRLNQYQRLWQPSAGKPQTVTVSELAERCFCSERHVRTLLRQAQEAGWLEWQAQSGRGKRGQLRFLVTPESLRNAMMEQALETGKQQDVLELAQLAPGELRTLLQPFMGGQWQNDTPTLRIPYYRPLEPLQPGFLPGRAEQHLAGQIFSGLTRFDNNTQRPIGDLAHHWETSTDGLRWDFYLRSTLHWHNGDAVKASHLHQRLLMLLQLPALDQLFISVKRIEVTHPQCLTFFLHRPDYWLAHRLASYCSHLAHPQFPLIGTGPFRLTQFTAELVRLESHDYYHLRHPLLKAVEYWITPPLFEKDLGTSCRHPVQITIGKPEELQRVSQVSSGISLGFCYLTLRKSPRLSLWQARKVISIIHQSGLLQTLEVGENLITASHALLPGWTIPHWQVPDEVKLPKTLTLVYHLPIELHTMAERLQATLAAEGCELTIIFHNAKNWDDTTLQAHADLMMGDRLIGEAPEYTLEQWLRCDPLWPHVFDAPAYAHLQSTLDAVQIMPDEENRFNALKAVFSQLMTDATLTPLFNYHYRISAPPGVNGVRLTPRGWFEFTEAWLPAPSQ	5.67					1.85 ± 0.39	3 ± 0.03	4.716 ± 0.0097				
MIPLQHGLILAAILFVLGLTGLVIRRNLLFMLIGLEIMINASALAFVVAGSYWGQTDGQVMYILAISLAAAEASIGLALLLQLHRRRQNLNIDSVSEMRG [P0AFE4]		6.43	7.8	> 8	5.17	3.31	7.48 ± 0.41	11.7			7.16 ± 0.3	13.1 ± 1.5
MLNQKIQNPNPDELMIEVDLCYELDPYELKLDEMIEAEPEPEMIEGLPASDALTPADRYLELFEHVQSAKIFPDSKTFPDCAPKMDPLDILIRYRKVRRHRDFDLRKFVENHFWLPEVYSSEYVSDPQNSLKEHIDQLWPVLTREPQDHIPWSSLLALPQSYIVPGGRFSETYYWDSYFTMLGLAESGREDLLKCMADNFAWMIENYGHIPNGNRTYYLSRSQPPVFALMVELFEEDGVRGARRYLDHLKMEYAFWMDGAESLIPNQAYRHVVRMPDGSLLNRYWDDRDTPRDESWLEDVETAKHSGRPPNEVYRDLRAGAASGWDYSSRWLRDTGRLASIRTTQFIPIDLNAFLFKLESAIANISALKGEKETEALFRQKASARRDAVNRYLWDDENGIYRDYDWRREQLALFSAAAIVPLYVGMANHEQADRLANAVRSRLLTPGGILASEYETGEQWDKPNGWAPLQWMAIQGFKMYGDDLLGDEIARSWLKTVNQFYLEQHKLIEKYHIADGVPREGGGGEYPLQDGFGWTNGVVRRLIGLYGEP	5.33 ± 0.21	3.703 ± 0.019	2.44 ± 0.17	2.97 ± 0.09	2.61 ± 0.21	1.15	2.95	3.87 ± 0.14	2.47 ± 0.1	3.37 ± 0.04	2.42 ± 0.43	4.75 ± 0.37
MSKTFARSSLCALSMTIMTAHAAEPPTNLDKPEGRLDIIAWPGYIERGQTDKQYDWVTQFEKETGCAVNVKTAATSDEMVSLMTKGGYDLVTASGDASLRLIMGKRVQPINTALIPNWKTLDPRVVKGDWFNVGGKVYGTPYQWGPNLLMYNTKTFPTPPDSWQVVFVEQNLPDGKSNKGRVQAYDGPIYIADAALFVKATQPQLGISDPYQLTEEQYQAVLKVLRAQHSLIHRYWHDTTVQMSDFKNEGVVASSAWPYQANALKAEGQPVATVFPKEGVTGWADTTMLHSEAKHPVCAYKWMNWSLTPKVQGDVAAWFGSLPVVPEGCKASPLLGEKGCETNGFNYFDKIAFWKTPIAEGGKFVPYSRWTQDYIAIMGGR	5.24 ± 0.43	5.67 ± 0.8	7.1 ± 0.7	7.128 ± 0.054	5.71 ± 0.53	3.27 ± 0.29	7.18 ± 0.46	13.3 ± 0.99	6.37 ± 0.074	14.3 ± 0.99	6.9 ± 1	13.8 ± 0.29
MPAENIVEVHHLKKSVGQGEHELSILTGVELVVKRGETIALVGESGSGKSTLLAILAGLDDGSSGEVSLVGQPLHNMDEEARAKLRAKHVGFVFQSFMLIPTLNALENVELPALLRGESSAESRNGAKALLEQLGLGKRLDHLPAQLSGGEQQRVALARAFNGRPDVLFADEPTGNLDRQTGDKIADLLFSLNREHGTTLIMVTHDLQLAARCDRCLRLVNGQLQEEA [P0A9T8]	6.26	6.68	5.9		5.39 ± 0.17	3.23 ± 0.07	5.51 ± 0.64	11.2 ± 1.8	7.11	11.4 ± 0.56	5.46 ± 0.41	11.6
MKIRSQVGMVLNLDKCIGCHTCSVTCKNVWTGREGMEYAWFNNVETKPGIGYPKNWEDQEEWQGGWVRDVNGKIRPRLGNKMGVITKIFANPVVPQIDDYYEPFTFDYEHLHSAPEGKHIPTARPRSLIDGKRMDKVIWGPNWEELLGGEFEKRARDRNFEAMQKEMYGQFENTFMMYLPRLCEHCLNPSCVATCPSGAIYKREEDGIVLIDQDKCRGWRLCISGCPYKKIYFNWKSGKSEKCIFCYPRIESGQPTVCSETCVGRIRYLGVLLYDADRIEEAASTEREVDLYERQCEVFLDPHDPSVIEEALKQGIPQNVIDAAQRSPVYKMAMDWKLALPLHPEYRTLPMVWYVPPLSPIQSYADAGGLPKSEGVLPAIESLRIPVQYLANMLSAGDTGPVLRALKRMMAMRHYMRSQTVEGVTDTRAIDEVGLSVAQVEEMYRYLAIANYEDRFVIPTSHREMAGDAFAERNGCGFTFGDGCHGSDSKFNLFNSSRIDAINITEVRDKAEGE	6.49 ± 0.73	5.74 ± 0.49	6.23 ± 0.64	6.34 ± 1.3	5.77 ± 1.2	3.14 ± 0.27	5.54 ± 0.12	10.3 ± 0.17	5.94 ± 0.089	12.5 ± 0.46	5.68 ± 0.26	11.62 ± 0.051

Source: the supplement of paper PMC11246515
